The text below walks through data of patent publication US20070238862A1 (published 2007).

No end group written: not given here.

T1: human ChemerinR (human, UniProt Q99788 3-373)
T1 sequence: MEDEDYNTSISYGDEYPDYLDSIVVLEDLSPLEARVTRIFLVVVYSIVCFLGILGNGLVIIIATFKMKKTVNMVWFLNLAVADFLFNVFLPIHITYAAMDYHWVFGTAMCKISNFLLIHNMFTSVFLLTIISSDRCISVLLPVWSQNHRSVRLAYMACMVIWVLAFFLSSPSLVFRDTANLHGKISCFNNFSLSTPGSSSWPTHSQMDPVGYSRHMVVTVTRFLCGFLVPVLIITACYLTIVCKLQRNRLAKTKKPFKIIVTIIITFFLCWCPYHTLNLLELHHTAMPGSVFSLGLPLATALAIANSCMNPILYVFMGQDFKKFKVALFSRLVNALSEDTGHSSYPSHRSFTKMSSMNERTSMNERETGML

This experiment addresses T1, human ChemerinR. The experiment in a line: cell-based or functional assay.
For the molecule YVPGQFAFS, the “EC50 (nM), Calcium flux-Aequoscreen assay on ChemerinR expressing cells” value was 43.8 nM.
With LFPGQFAFS the figure was 66.3 nM; with IFPGQFAFS, 25.8 nM.
Turning to YFPGQFAFD-NH2 [YFPGQFAFD-CONH2], the “EC50 (nM), Calcium flux-Aequoscreen assay on ChemerinR expressing cells” value was 4.3 nM.
Turning to FLPGQFAFS, the “EC50 (nM), Calcium flux-Aequoscreen assay on ChemerinR expressing cells” value was found to be 29.1 nM.
